Laboratory results reported in the supplement of paper PMC9112550, “Optimization of the antimicrobial peptide Bac7 by deep mutational scanning” (BMC Biology, 2022).

tested on: Escherichia coli TOP10; assay: shrunken log2 fold change of peptide-encoding DNA abundance (4.5 h post-induction vs induction); higher = less antimicrobial activity (less host growth inhibition); settings: time post-induction: 4.5 h; library: site-saturation at positions 5, 18, 19, 20
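Further: peptides expressed intracellularly from a pBAD plasmid library in pooled LB shake-flask culture, induced with 0.3% L-arabinose, DNA abundance read by NGS, three biological replicates, DESeq2 with apeglm shrinkage.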

Sequence | shrunken log2 fold change
RRIRVRPPRLPRPRPRPRKEPRP | -0.0286
RRIRVRPPRLPRPRPRPRKWPRP | 0.474
RRIRVRPPRLPRPRPRPRLIPRP | -0.293
RRIRVRPPRLPRPRPRPRMYPRP | -0.882
RRIRVRPPRLPRPRPRPRNGPRP | 0.0197
RRIRVRPPRLPRPRPRPRPEPRP | 0.609
RRIRVRPPRLPRPRPRPRRCPRP | -0.0137
RRIRVRPPRLPRPRPRPRSEPRP | -0.14
RRIRVRPPRLPRPRPRPRSGPRP | 0.322
RRIRVRPPRLPRPRPRPRSNPRP | 0.125
RRIRVRPPRLPRPRPRPRSQPRP | 0.25
RRIRVRPPRLPRPRPRPRSVPRP | 0.0756
RRIRVRPPRLPRPRPRPRTHPRP | 0.199
RRIRVRPPRLPRPRPRPRTIPRP | -0.0961
RRIRVRPPRLPRPRPRPRTMPRP | 0.0485
RRIRVRPPRLPRPRPRPRTSPRP | 0.0612
RRIRVRPPRLPRPRPRPRVCPRP | 0.165
RRIRVRPPRLPRPRPRPRVRPRP | 0.363
RRIRVRPPRLPRPRPRPRVTPRP | 0.274
RRIRVRPPRLPRPRPRPRWKPRP | 0.328
RRIRVRPPRLPRPRPRPRWPPRP | 0.534
RRIRVRPPRLPRPRPRPRYQPRP | 0.171
RRIRVRPPRLPRPRPRPRYTPRP | 0.0365
RRIRVRPPRLPRPRPRPSAYPRP | -0.34
RRIRVRPPRLPRPRPRPSCLPRP | -0.618

Sequence | shrunken log2 fold change
RRIRVRPPRLPRPRPRPSDKPRP | -0.153
RRIRVRPPRLPRPRPRPSDQPRP | -0.669
RRIRVRPPRLPRPRPRPSDYPRP | -0.673
RRIRVRPPRLPRPRPRPSFGPRP | -0.463
RRIRVRPPRLPRPRPRPSFPPRP | -0.627
RRIRVRPPRLPRPRPRPSGCPRP | -0.194
RRIRVRPPRLPRPRPRPSGYPRP | -0.28
RRIRVRPPRLPRPRPRPSILPRP | -0.312
RRIRVRPPRLPRPRPRPSIQPRP | -0.321
RRIRVRPPRLPRPRPRPSISPRP | -0.357
RRIRVRPPRLPRPRPRPSIYPRP | -0.482
RRIRVRPPRLPRPRPRPSKWPRP | -0.283
RRIRVRPPRLPRPRPRPSLAPRP | -0.0683
RRIRVRPPRLPRPRPRPSMEPRP | -0.159
RRIRVRPPRLPRPRPRPSMGPRP | -0.399
RRIRVRPPRLPRPRPRPSPEPRP | -0.142
RRIRVRPPRLPRPRPRPSPFPRP | -0.442
RRIRVRPPRLPRPRPRPSPMPRP | -0.261
RRIRVRPPRLPRPRPRPSPSPRP | -0.017
RRIRVRPPRLPRPRPRPSRPPRP | 0.196
RRIRVRPPRLPRPRPRPSRYPRP | -0.0975
RRIRVRPPRLPRPRPRPSTFPRP | -0.479
RRIRVRPPRLPRPRPRPSTSPRP | -0.0898
RRIRVRPPRLPRPRPRPSTVPRP | -0.0673
RRIRVRPPRLPRPRPRPSWWPRP | 0.0465

Sequence | shrunken log2 fold change
RRIRVRPPRLPRPRPRPSYMPRP | -1.16
RRIRVRPPRLPRPRPRPTADPRP | 0.27
RRIRVRPPRLPRPRPRPTASPRP | 0.541
RRIRVRPPRLPRPRPRPTAVPRP | 0.327
RRIRVRPPRLPRPRPRPTCEPRP | 0.243
RRIRVRPPRLPRPRPRPTCLPRP | 0.332
RRIRVRPPRLPRPRPRPTCWPRP | 0.835
RRIRVRPPRLPRPRPRPTDIPRP | -0.402
RRIRVRPPRLPRPRPRPTDMPRP | -0.234
RRIRVRPPRLPRPRPRPTDSPRP | -0.115
RRIRVRPPRLPRPRPRPTEGPRP | 0.0116
RRIRVRPPRLPRPRPRPTELPRP | 0.324
RRIRVRPPRLPRPRPRPTEMPRP | -0.0269
RRIRVRPPRLPRPRPRPTESPRP | -0.00266
RRIRVRPPRLPRPRPRPTEVPRP | 0.0934
RRIRVRPPRLPRPRPRPTFSPRP | -0.3
RRIRVRPPRLPRPRPRPTFWPRP | 0.3
RRIRVRPPRLPRPRPRPTGHPRP | 0.0149
RRIRVRPPRLPRPRPRPTGLPRP | 0.000711
RRIRVRPPRLPRPRPRPTGVPRP | 0.0149
RRIRVRPPRLPRPRPRPTHSPRP | 0.156
RRIRVRPPRLPRPRPRPTIMPRP | -0.411
RRIRVRPPRLPRPRPRPTIVPRP | -0.497
RRIRVRPPRLPRPRPRPTMNPRP | -0.353
RRIRVRPPRLPRPRPRPTMRPRP | 0.799

Sequence | shrunken log2 fold change
RRIRVRPPRLPRPRPRPTMVPRP | 0.0376
RRIRVRPPRLPRPRPRPTNTPRP | -0.175
RRIRVRPPRLPRPRPRPTPIPRP | 0.186
RRIRVRPPRLPRPRPRPTSPPRP | 0.0262
RRIRVRPPRLPRPRPRPTSQPRP | 0.00273
RRIRVRPPRLPRPRPRPTTLPRP | -0.111
RRIRVRPPRLPRPRPRPTTQPRP | 0.0531
RRIRVRPPRLPRPRPRPTVHPRP | -0.0675
RRIRVRPPRLPRPRPRPTWKPRP | -0.0442
RRIRVRPPRLPRPRPRPTWSPRP | 0.0201
RRIRVRPPRLPRPRPRPTYAPRP | 0.141
RRIRVRPPRLPRPRPRPTYLPRP | 0.00624
RRIRVRPPRLPRPRPRPTYNPRP | -0.769
RRIRVRPPRLPRPRPRPVALPRP | 0.0693
RRIRVRPPRLPRPRPRPVCCPRP | 0.0608
RRIRVRPPRLPRPRPRPVCVPRP | -0.0658
RRIRVRPPRLPRPRPRPVGWPRP | 0.77
RRIRVRPPRLPRPRPRPVIPPRP | -0.0964
RRIRVRPPRLPRPRPRPVKFPRP | -0.133
RRIRVRPPRLPRPRPRPVLMPRP | 0.107
RRIRVRPPRLPRPRPRPVPMPRP | 0.0779
RRIRVRPPRLPRPRPRPVPTPRP | 0.149
RRIRVRPPRLPRPRPRPVQHPRP | -0.0336
RRIRVRPPRLPRPRPRPVQSPRP | -0.104
RRIRVRPPRLPRPRPRPVRFPRP | 0.391

Sequence | shrunken log2 fold change
RRIRVRPPRLPRPRPRPVRSPRP | 0.522
RRIRVRPPRLPRPRPRPVSAPRP | -0.141
RRIRVRPPRLPRPRPRPVSSPRP | 0.105
RRIRVRPPRLPRPRPRPVTEPRP | -0.164
RRIRVRPPRLPRPRPRPVTNPRP | -0.68
RRIRVRPPRLPRPRPRPVTQPRP | 0.12
RRIRVRPPRLPRPRPRPVVQPRP | -0.039
RRIRVRPPRLPRPRPRPVWEPRP | 0.0761
RRIRVRPPRLPRPRPRPVWIPRP | -0.206
RRIRVRPPRLPRPRPRPVWKPRP | 0.0859
RRIRVRPPRLPRPRPRPVYDPRP | -0.182
RRIRVRPPRLPRPRPRPWDMPRP | -0.184
RRIRVRPPRLPRPRPRPWDWPRP | 0.163
RRIRVRPPRLPRPRPRPWEAPRP | 0.268
RRIRVRPPRLPRPRPRPWEKPRP | 0.0403
RRIRVRPPRLPRPRPRPWEQPRP | -0.355
RRIRVRPPRLPRPRPRPWERPRP | 0.153
RRIRVRPPRLPRPRPRPWFNPRP | -0.437
RRIRVRPPRLPRPRPRPWGQPRP | -0.191
RRIRVRPPRLPRPRPRPWLTPRP | -0.147
RRIRVRPPRLPRPRPRPWMFPRP | -0.673
RRIRVRPPRLPRPRPRPWMRPRP | 0.731
RRIRVRPPRLPRPRPRPWMTPRP | -0.0714
RRIRVRPPRLPRPRPRPWMVPRP | -0.208
RRIRVRPPRLPRPRPRPWNDPRP | -0.0722

Sequence | shrunken log2 fold change
RRIRVRPPRLPRPRPRPWNRPRP | -0.183
RRIRVRPPRLPRPRPRPWQHPRP | 0.0882
RRIRVRPPRLPRPRPRPWQMPRP | -0.00669
RRIRVRPPRLPRPRPRPWQNPRP | 0.013
RRIRVRPPRLPRPRPRPWQPPRP | 0.146
RRIRVRPPRLPRPRPRPWQYPRP | -0.0599
RRIRVRPPRLPRPRPRPWRIPRP | -0.00931
RRIRVRPPRLPRPRPRPWRKPRP | 0.0283
RRIRVRPPRLPRPRPRPWRWPRP | 0.48
RRIRVRPPRLPRPRPRPWRYPRP | 0.0359
RRIRVRPPRLPRPRPRPWSCPRP | -0.155
RRIRVRPPRLPRPRPRPWVCPRP | 0.133
RRIRVRPPRLPRPRPRPWVSPRP | -0.278
RRIRVRPPRLPRPRPRPWWIPRP | -0.202
RRIRVRPPRLPRPRPRPWYMPRP | -0.132
RRIRVRPPRLPRPRPRPWYRPRP | -0.39
RRIRVRPPRLPRPRPRPYAEPRP | -0.0642
RRIRVRPPRLPRPRPRPYAKPRP | -0.0931
RRIRVRPPRLPRPRPRPYDRPRP | -0.00895
RRIRVRPPRLPRPRPRPYEKPRP | -0.293
RRIRVRPPRLPRPRPRPYERPRP | 0.0458
RRIRVRPPRLPRPRPRPYEYPRP | -0.137
RRIRVRPPRLPRPRPRPYFDPRP | -0.609
RRIRVRPPRLPRPRPRPYFFPRP | -0.512
RRIRVRPPRLPRPRPRPYGMPRP | -0.0584
